# Measured values as given in a protein production outcome set (Wang et al. 2014).
# Assay: label from the status in PepcDB records
row,Sequence,protein production
1,SLKKIVESTTFPRTKQSITEDLKALGLKKGMTVLVHSSLSSIGWVNGGAVAVIQALIDVVTEEGTIVMPSQSVELSDPKEWGNPPVPEEWWDIIRESMPAYNSNYTPTTRGMGQIVELFRSYPEVKRSNHPNYSFVAWGKHKNKILNQHPLEFGLGEQSPLGKLYIRESYVLLLGADFDSSTCFHLAEYRIPYQKIINRGAPIIVEGKRVWKEYKELEFREELFQEVGQAFEAEHNMKVGKVGSANCRLFSLTEAVDFAEKWFINNDSKNIKK,not failed
2,SLMAGSFCWRMLGLVSKVGNRARCFSSVAASEEELLDFSGSELQFNSCSLHLSLHPFFNFLLGIHSCFVCKESKTDVKRCVVTQCGKFYHEACVKKYPLTVFESRGFRCPLHSCVSCHASNPSNPRPSKGKMMRCVRCPVAYHSGDACLAAGCSVIASNSIICTAHFTARKGKRHHAHVNVSWCFVCSKGGSLLCCESCPAAFHPDCLNIEMPDGSWFCNDCRAGKKLHFQDIIWVKLGNYRWWPAEVCHPKNVPPNIQKMKHEIGEFPVFFFGSKDYYWTHQARVFPYMEGDRGSRYQGVRGIGRVFKNALQEAEARFREIKLQREARETQESERKPPPYKHIKVNKPYGKVQIYTADISEIPKCNCKPTDENPCGFDSECLNRMLMFECHPQVCPAGEFCQNQCFTKRQYPETKIIKTDGKGWGLVAKRDIRKGEFVNEYVGELIDEEECMARIKHAHENDITHFYMLTIDKDRIIDAGPKGNYSRFMNHSCQPNCETLKWTVNGDTRVGLFAVCDIPAGTELTFNYNLDCLGNEKTVCRCGASNCSGFLGDRPKTSTTLSSEEKGKKTKKKTRRRRAKGEGKRQSEDECFRCGDGGQLVLCDRKFCTKAYHLSCLGLGKRPFGKWECPWHHCDVCGKPSTSFCHLCPNSFCKEHQDGTAFSCTPDGRSYCCEHDLGAASVRSTKTEKPPPEPGKPKGKRRRRRGWRRVTEGK,not failed
3,SLPIASTATQMGSNKTRIFARQPAKAPPPLAWLSRPRDPRATAIAAAGQQSSRRVSKRELESHGSATDAWTAIHGVVYDITAYFRFHPGGAEILFIEAAGKDSTAVFDEMHPWVNVAWLLKDYRIGLYAPESEDDGGDDDDDDRTMTSPE,not failed
4,SLQCIFLISDSGEVMLEKQLTGHRVDRSICAWFWDQYISQGDSFKALPVIASPTHYLFQIVRDGITFLACSQVEMPPLMAIEFLCRVADVLSEYLGGLNEDLIKDNFIIVYELLDEMIDNGFPLTTEPSILKEMIAPPNLVSKMLSVVTGNASNVSDTLPSGAGSCVPWRPTDPKYSSNEVYVDLVEEMDAIVNRDGELVKCEIYGEVQMNSQLTGFPDLTLSFANPSILEDMRFHPCVRYRPWESHQVLSFVPPDGEFKLMSYRVKKLKNTPVYVKPQITSDSGTCRISVLVGIRSDPGKTIESITLSFQLPHCVSSADLSSNHGTVTILSNKTCTWTIGRIPKDKTPCLSGTLALEPGLERLHVFPTFKLGFKIMGIALSGLRIEKLDLQTIPPRLYKGFRAQTRTGEFDVRL,failed
5,SLRADKPKCSIQNFFIPALGKDPNSRDNTTLNFMVRCDNPNKDKGIYYDDVHLNFSTINTTKINSSALVLVGNYTVPKFYQGHKKKAKKWGQVKPLNNQTVLRAVLPNGSAVFRLDLKTQVRFKIVFWKTKRYGVEVGADVEVNGDGVKAQKKGIKMKKS,not failed
6,SLRREMQEILPGLFLGPYSSAMKSKLPVLQKHGITHIICIRQNIEANFIKPNFQQLFRYLVLDIADNPVENIIRFFPMTKEFIDGSLQMGGKVLVHGNAGISRSAAFVIAYIMETFGMKYRDAFAYVQERRFCINPNAGFVHQLQEYEAIYLAK,not failed
7,SLRSMVSDSVDEIVDGVSKTTAEVINGRKSIAQYATSLIENNPEPDNVRTIISQPLIKNTFLLVGFGLEKDGSNINNDPSWNPGPTWDPRVRPWYKDAKNAGKLVITAPYADSASGEILVSVATPVKDSATGQFLGSIFYDVSLAELAELVNEVKLFDAGYVFIVSEDGTTIAHPKKEFNGKPMSEFLGESKINVDTHQVIINGKPYAVSFSDVEGEDWYVGVVIDEEIAYAALDELRRS,not failed
8,SLSPAELHADSIVIDGLIIAKWNRELFEDMRKGGLTAANCTVSVWEGFQATVNNIVASNKLIRDNSDLVIPVRSTADIRKAKEQGKTGILYGFQNAHAFEDQIGYVEVFKQLGVGIVQMCYNTQNLVGTGCYERDGGLSGFGREIVAEMNRVGIMCDLSHVGSKTSEEVILESKKPVCYSHCLPSGLKEHPRNKSDEELKFIADHGGFVGVTMFAPFLKKGIDSTIDDYAEAIEYVMNIVGEDAIGIGTDFTQGHGHDFFEWLTHDKGYARRLTNFGKIVNPLGIRTVGEFPNLTETLLKRGMPERVVRKVMGENWVRVLRDVWGE,not failed
9,SLSRRKPNPVIVADIRQAEGALAEIATIDRKVGEIEAQMNEAIDAAKARASQKSAPLLARRKELEDGVATFATLNKTEMFKDRKSLDLGFGTIGFRLSTQIVQMSKITKDMTLERLRQFGISEGIRIKEDVNKEAMQGWPDERLEMVGLKRRTTDAFYIEINREEVADTAA,not failed
10,SLSTVNIKSTGVTSTELAEIGEHQSEMPGVKVGTSWTRSYPNGTDLSSVLGTVTTEKQGLPSDSIKTLLAEGYSRDDSVGQSQLEKQYENVLRGTKSQTEVKTQDGVIQKEIKKYGGQKGDNVQLTIN,failed
11,SNSIGLRQSVSDKGIEIVNLLAPKVEMLGFDLLGAEYLLVPSGAILRLYIDIPFAMQPECMVSIDDCERVSREVSAYLDLEEPISGNYTLEVSSP,failed
12,SPESLYLLWGPQMQFFFNDAYRPVLGPRLANALGQTIQTLWADAWPDVQPMVEQAFLGYSCRHEDLPVNMQRYPGEELTWWSFSMSPVYDEDDEQVLGVLCHTVETTDRVLLARHARQTEAH,failed
13,SPFIRANTAWLGHLEFAYDLVRFEKPEILVELGTHMGASFFSFCQGVKDGGLATKCFAVDTWTGDGHTGPYGEGVFHIVDKVVKTSYPNIGNLIKSTFDEAVDQFQDGTINLLHIDGYHTYEAVSHDYKTWLPKLADNGIVLFHDIEVKDRNFGVYKFWDEVKAKYPHFQFQHSYGLGVLFPKGCSDRFKEILKNKEEIQDMYK,failed
14,SRSKQKSRRRCFQCQTKLELVQQELGSCRCGYVFCMLHRLPEQHDCTFDHMGRG,not failed
15,SSAEAGGGIRKRHRTKFTAEQKERMLALAERIGWRIQRQDDEVIQRFCQETGVPRQVLKVWLHNNKH,not failed
16,SSDASKVTSKGAGLSKAFVGQKSSFLVDCSKAGSNMLLIGVHGPTTPCEEVSMKHVGNQQYNVTYVVKERGDYVLAVKWGEEHIPGSPFHVTVP,not failed
17,SSGNHIFKGRAAGIAVNENGKGLITENVIRENQWGGVDIRRGGIPVLRSNLICFGYSDGVVVGDEGKGLIEGNTIYANKGCGVWMMSSSLPHVTSNHVSYNGLYGVAVFSQKDGSSELPRGHRAQENFSEDGDAILWETELEKEDDPLRRPITIALVESNSINHNGASGLYVQSSEALHVITNVIHANGDRGITVAQSSQPTRVANNSISCNRQSGVKVEAQCKVELRGNGIYDNRGHGIITKGDSTIVIENDIIGNRGSGLQLLPRSDTKVIKNRIHSFRAYGIAVRGRAKALVQENIIFQGKTSKTIFQQISNNRECIMQNNKFLVFKKKSDTWR,not failed
18,SSISRANKKKPSMPNVSNDLSQKLYATMEKHKEVFFVIHLHAGPVINTLPPIVDPDPLLSCDLMDGRDAFLTLARDKHWEFSSLRRSKWSTLCMLVELHTQ,failed
19,SSLLDGLASSPRAPLQSSKARMKKLPKKSQNEKYRLKYLRLRKAAKATVFENAAICDEIARLEEKFLKAKEERRYLLKKLLQLQALTEGEVQAAAPSHSSSLPLTYGVASSVGTIQGAGPISGPSTGAEEPFGKKTKKEKKEKGKENNKLEVLKKTCKKKKMAGGARKLVQPIALDPSGRPVFPIGLGGLTVYSLGEIITDRPGFHDESAIYPVGYCSTRIYASMKCPDQKCLYTCQIKDGGVQPQFEIVPEDDPQNAIVSSSADACHAELLRTISTTMGKLMPNLLPAGADFFGFSHPAIHNLIQSCPGARKCINYQWVKFDVCKPGDGQLPEGLPENDAAMSFEAFQRQIFDEDQNDPLLPGSLDLPELQPAAFVSSYQPMYLTHEPLVDTHLQHLKSPSQGSPIQSSD,not failed
20,SSQGFIFNLSRPMFQDRRVRQALSLLWDFEWTNRQMMRNMYIRQDSYFSNSELAASQLPTPAELKILEPLRGTVPKEVFDTVFKTPKTDGTGLIRDKQLQALALMKEAGWTPKGDELVNAQGEPFSFTFLNAQSGFERMLLPYKRTLAQIGIHFDIRRIDSAQYLNRVMARDYDMIVTGYPVSTSPGAELYNSFGSKVAMDPGSSNYMALQDPAVDTLIAGLVKADNKQTMTDYAHCLDRVLQWNYYWIPNYYPP,failed
21,SSQRYMQILQIMPEAIFIHDNGKCNFINDKAIKLLEVKDVKDIIGKNIVDFIHEDYKELAQARIDKTMKTGMPCDFIEERLVTAMGKKIIIEAATTTFSHNNGTFITIIRDMT,failed
22,STTTTTKKPHVLVIPFPQSGHMVPHLDLTHQILLRGATVTVLVTPKNSSYLDALRSLHSPEHFKTLILPFPSHPCIPSGVESLQQLPLEAIVHMFDALSRLHDPLVDFLSRQPPSDLPDAILGSSFLSPWINKVADAFSIKSISFLPINAHSISVMWAQEDRSFFNDLETATTESYGLVINSFYDLEPEFVETVKTRFLNHHRIWTVGPLLPFKAGVDRGGQSSIPPAKVSAWLDSCPEDNSVVYVGFGSQIRLTAEQTAALAAALEKSSVRFIWAVRDAAKKVNSSDNSVEEDVIPAGFEERVKEKGLVIRGWAPQTMILEHRAVGSYLTHLGWGSVLEGMVGGVMLLAWPMQADHFFNTTLIVDKLRAAVRVGENRDSVPDSDKLARILAESAREDLPERVTLMKLREKAMEAIKEGGSSYKNLDELVAEMCL,failed
23,SVATQHLFARQKNTQLTLHVAHSFCSQWLMPRLADFHRQHPDVVVKISTTANTVPNASAIADVEIINGYGDWQSEQAVQLTQEN,failed
24,SVDDDLYFIPKKKAEKKEEVKQEVKVVVPQKQNTTTVYAAPGSTVVVKDVKGKVRDVDEYNRRYTSRDNNFSMENDTLYIEEKPLNERGEWVNGFEGSQDDYEYAMRIVRFRNPRYAIPVSSPLYWDVVYGLPSWDWNVYDDGLYAYVFPTYTNRLWWDWRWNYPYGASWGFSWGWSSPWYYNSWYYPGYWGGGYWGGYWGYHHHHHHHYYPHYSGHGWGGGYWGGGHGWYGSSRRNPGIHAGRYTNSYGSSRPSRNNYVNSYDRNSRNSYVGNSRQNVRNSANSYRTATRNGSSSGRVVSGSDGVNSVRPNRSAIRTRTGATLSPSQAAGVRPGNSYSRPTEGRGSSYTRPSS,failed
25,SVFPQQTGQLAELQPQDRAGARASWMPMFQRRRRRDTHFPICIFCCGCCHRSKCGMCCKT,failed
26,SVPKRQRIRKLQIRNIPPHLQWEVLDSLLVQYGVVESCEQVNTDSETAVVNVTYSSKDQARQALDKLNGFQLENFTLKVAYIPDEMAAQ,not failed
27,SWNQAPKLHYCLDYDCQKAELFVTRLEAVTSNHDGGCDCYVQGSVANRTGSVEAQTALKKRQLHTTWEEGLVLPLAEEELPTATLTLTLRTCDRFSRHSVAGELRLGLDGTSVPLGAAQWGELKT,not failed
28,SWSDLFRKCTTDEEQEMLQFLIDNKDSEILRAFVSERSILLHEEYLKWESYMTRRAKFHRLAADFAMFLSILTSLIVIFCLVYSMYQLFKTPDEHSAYDPSTRPKPKTQEVKTLKIRTE,not failed
29,SYLPKHESVTLKNGLQVVSVPLENKTGVIEVDVLYKVGSRNETMGKSGIAHMLEHLNFKSTKNLKAGEFDKIVKRFGGVSNASTSFDITRYFIKTSQANLDKSLELFAETMGSLNLKEDEFLPERQVVAEERRWRTDNSPIGMLYFRFFNTAYVYHPYHWTPIGFMDDIQNWTLKDIKKFHSLYYQPKNAIVLVVGDVNSQKVFELSKKHFESLKN,failed
